Results on three sequences are retold here after patent publication US6849610.

The IC50 is the concentration needed to halve the response being measured. High values mean lower potency, low ones higher potency.

The series has as its system HCMV intact particles AD169 (Human cytomegalovirus AD169). Kind of series: cell_activity. The following applies: 2'-NH2 on all pyrimidines, plaque formation, 1e5 PFU/ml.

Where the note is “viral yield IC50 35±7 nM”, “GGGAGACAAGAAUAAACGGUCAACUCGAGCCACCCCAUAACCCUCAAUACUCCAGGGAUUGGGUUCGACAUGAGGG [L19]” had an IC50 of 35 nM. As for “GGGAGACAAGAAUAAACGGUCAAUGUGGGUCGUGUUAAGCUUCGGGCUUCGCGCAAAUCUGGGUUCGACAUGAGGG [L66]”, the IC50 (viral yield IC50 18±4 nM) turned out to be 15 nM.

“GGGAGACAAGAAUAAACGGUCAAUUACGGUCACCUUACCCCUGGGUGUGCUCUUCCCGGUGGGUUCGACAUGAGGG [L13]” came in with an IC50 (viral yield IC50 100±20 nM) of 125 nM.
